Assay results taken from article PMC7308479.

Biological target: GST
Test: AUC; sedimentation velocity, 40 μM GST, 25 mM HEPES pH 7.4, 500 mM NaCl, 4°C

GST, sequence (P08515 2-218): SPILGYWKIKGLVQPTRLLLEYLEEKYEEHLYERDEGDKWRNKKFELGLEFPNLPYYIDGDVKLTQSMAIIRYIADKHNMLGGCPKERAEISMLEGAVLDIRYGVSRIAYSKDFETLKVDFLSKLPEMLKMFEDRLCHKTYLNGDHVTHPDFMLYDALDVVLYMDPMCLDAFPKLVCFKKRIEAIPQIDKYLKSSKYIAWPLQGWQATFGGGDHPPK

stoichiometry N: 2
Substance: GST
